Measurements taken from patent publication US12269859B2, “Synthetic immune receptors and methods of use thereof” (Angeles Therapeutics, Inc., priority 2016, dated 2025).

Test system: target antigen-expressing cell line
Test: Jurkat NFAT-GFP assay, coculture with target cell lines expressing the respective target antigen (summary Table 10A)
Assay type: cell-based, human
Design: key: The signs +/−, +, 2+ etc. after the name of the cell lines indicate the relative degree of positivity on the Jurkat-NFAT-GFP assay as measured by the % GFP positive cells; +: relative degree of positivity on the Jurkat-NFAT-GFP assay as measured by the % GFP positive cells; 2+: relative degree of positivity on the Jurkat-NFAT-GFP assay as measured by the % GFP positive cells
Procedure, shortened: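 Positivity is scored when SIR-expressing reporter Jurkat cells show more GFP-positive cells than parental controls after coculture with the antigen-bearing line. Effector-to-target ratio is about 1:2, coculture lasts roughly 4–18 hours, and GFP is quantified by FACS.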

B1: 110116-J04 (protein)
chain: MALPVTALLLPLALLLHAARPLEQKLISEEDLGSGDRPDPAVYQLRDSKSSDKSVCLFTDFDSQTNVSQSKDSDVYITDKCVLDMRSMDFKSNSAVAWSNKSDFACANAFNNSIIPEDTFFPSPESSCDVKLVEKSFETDTNLNFQNLSVIGFRILLLKVAGFNLLMTLRLWSSSSRAKRSGSGVKQTLNFDLLKLAGDVESNPGPTSMALPVTALLLPLALLLHAARPDIQMTQSPASLSASVGETVTIICRASVNIYSYLAWYQQKQGKSPQLLVYNAKILAEGVPSRFSGSGSGTQFSLKINSLQPEDFGSYYCQHHYGTFTFGSGTKLEIKRGGGGSGGGGSGGGGSQVQLKESGPGLVAPSQSLSITCTISGFSLTSYGVHWVRQPPGKGLEWLVVIWSDGSTTYNSALKSRLSISKDNSKSQVFLKMNSLQTDDTAIYYCASHYGSTLAFASWGHGTLVTVSAATRGKPIPNPLLGLDSTGSGEDLKNVFPPEVAVFEPSEAEISHTQKATLVCLATGFYPDHVELSWWVNGKEVHSGVCTDPQPLKEQPALNDSRYCLSSRLRVSATFWQNPRNHFRCQVQFYGLSENDEWTQDRAKPVTQIVSAEAWGRADCGFTSESYQQGVLSATILYEILLGKATLYAVLVSALVLMAMVKRKDSRGRAKRSGSGATNFSLLKQAGDVEENPGPSRGHMTEYKPTVRLATRDDVPRAVRTLAAAFADYPATRHTVDPDRHIERVTELQELFLTRVGLDIGKVWVADDGAAVAVWTTPESVEAGAVFAEIGPRMAELSGSRLAAQQQMEGLLAPHRPKEPAWFLATVGVSPDHQGKGLGSAVVLPGVEAAERAGVPAFLETSAPRNLPFYERLGFTVTADVEVPEGPRTWCMTRKPGA
modifications: Synthetic Immune Receptor (SIR)
NFAT-GFP ASSAY Positive Cell lines (coculture with NALM6 cells): (2+) | NFAT-GFP ASSAY Positive Cell lines (coculture with RAJI cells): RAJI (2+), NALM6

B2: 071417-W08 (protein)
chain: MALPVTALLLPLALLLHAARPLEGKPIPNPLLGLDSTGSGEDLKNVFPPEVAVFEPSKAEIAHTQKATLVCLATGFYPDHVELSWWVNGKEVHSGVCTDPQPLKEQPALNDSRYCLSSRLRVSATFWQNPRNHFRCQVQFYGLSENDEWTQDRAKPVTQIVSAEAWGRADCGITSASYHQGVLSATILYEILLGKATLYAVLVSALVLMAMVKRKDSRGRAKRSGSGATNFSLLKQAGDVEENPGPTSMALPVTALLLPLALLLHAARPDVMLTQTPLSLPVSLGDQASISCRSSQSILHSTGDTYLEWYLQKPGQSPKLLINKVSNRLSGVPDRFSGSGSGTDFTLKISRVEAEDLGVYYCFQGSHVPWTFGGGTKLEIKRADAAPTVSIFPGGGGSGGGGSGGGGSQVKLQQSGPSLVKPGASVKMSCKASGYTFTDFYMKWVKQSHGKSLEWIGDINPNIGDTFYNQKFKGKATLTVDKSSSTAYMQLNSLTSEDSAVYFCSVGYFDVWGAGTTVTVSSTREQKLISEEDGSGIQNPDPAVYQLRDSKSSDKSVCLFTDFDSQTNVSQSKDSDVYITDKCVLDMRSMDFKSNSAVAWSNKSDFACANAFNNSIIPEDTFFPSSDVPCDVKLVEKSFETDTNLNFQNLSVIGFRILLLKVAGFNLLMTLRLWSSRAKRSGSGVKQTLNFDLLKLAGDVESNPGPSRGHMTEYKPTVRLATRDDVPRAVRTLAAAFADYPATRHTVDPDRHIERVTELQELFLTRVGLDIGKVWVADDGAAVAVWTTPESVEAGAVFAEIGPRMAELSGSRLAAQQQMEGLLAPHRPKEPAWFLATVGVSPDHQGKGLGSAVVLPGVEAAERAGVPAFLETSAPRNLPFYERLGFTVTADVEVPEGPRTWCMTRKPGA
NFAT-GFP ASSAY Positive Cell lines (coculture with U266 cells): U266 (+/−)

B3: 042916-B04 (protein)
chain: MALPVTALLLPLALLLHAARPLEGKPIPNPLLGLDSTGSGEDLKNVFPPEVAVFEPSKAEIAHTQKATLVCLATGFYPDHVELSWWVNGKEVHSGVCTDPQPLKEQPALNDSRYCLSSRLRVSATFWQNPRNHFRCQVQFYGLSENDEWTQDRAKPVTQIVSAEAWGRADCGITSASYHQGVLSATILYEILLGKATLYAVLVSALVLMAMVKRKDSRGRAKRSGSGATNFSLLKQAGDVEENPGPTSTMALPVTALLLPLALLLHAARPDIQMTQSPSSLSASVGDRVTITCTASLSVSSTYLHWYQQKPGSSPKLWIYSTSNLASGVPSRFSGSGSGTSYTLTISSLQPEDFATYYCHQYHRSPLTFGGGTKVEIKRGGGGSGGGGSGGGGSEVQLVESGGGLVQPGGSLRLSCAASGFSLTKYGVHWVRQAPGKGLEWVGVKWAGGSTDYNSALMSRFTISKDNAKNSLYLQMNSLRAEDTAVYYCARDHRDAMDYWGQGTLVTVSSTREQKLISEEDGSGIQNPDPAVYQLRDSKSSDKSVCLFTDFDSQTNVSQSKDSDVYITDKCVLDMRSMDFKSNSAVAWSNKSDFACANAFNNSIIPEDTFFPSSDVPCDVKLVEKSFETDTNLNFQNLSVIGFRILLLKVAGFNLLMTLRLWSSRAKRSGSGVKQTLNFDLLKLAGDVESNPGPSRGHMTEYKPTVRLATRDDVPRAVRTLAAAFADYPATRHTVDPDRHIERVTELQELFLTRVGLDIGKVWVADDGAAVAVWTTPESVEAGAVFAEIGPRMAELSGSRLAAQQQMEGLLAPHRPKEPAWFLATVGVSPDHQGKGLGSAVVLPGVEAAERAGVPAFLETSAPRNLPFYERLGFTVTADVEVPEGPRTWCMTRKPGA
modifications: Synthetic Immune Receptor (SIR)
NFAT-GFP ASSAY Positive Cell lines (coculture with U87-MG (U87MG) cells): U87MG

B4: 090116-J01 (protein)
chain: MALPVTALLLPLALLLHAARPLEGKPIPNPLLGLDSTGSGEDLKNVFPPEVAVFEPSKAEIAHTQKATLVCLATGFYPDHVELSWWVNGKEVHSGVCTDPQPLKEQPALNDSRYCLSSRLRVSATFWQNPRNHFRCQVQFYGLSENDEWTQDRAKPVTQIVSAEAWGRADCGITSASYHQGVLSATILYEILLGKATLYAVLVSALVLMAMVKRKDSRGRAKRSGSGATNFSLLKQAGDVEENPGPTSMALPVTALLLPLALLLHAARPDIQMTQSPASLSASVGETVTIICRASVNIYSYLAWYQQKQGKSPQLLVYNAKILAEGVPSRFSGSGSGTQFSLKINSLQPEDFGSYYCQHHYGTFTFGSGTKLEIKRGGGGSGGGGSGGGGSQVQLKESGPGLVAPSQSLSITCTISGFSLTSYGVHWVRQPPGKGLEWLVVIWSDGSTTYNSALKSRLSISKDNSKSQVFLKMNSLQTDDTAIYYCASHYGSTLAFASWGHGTLVTVSAATREQKLISEEDGSGIQNPDPAVYQLRDSKSSDKSVCLFTDFDSQTNVSQSKDSDVYITDKCVLDMRSMDFKSNSAVAWSNKSDFACANAFNNSIIPEDTFFPSSDVPCDVKLVEKSFETDTNLNFQNLSVIGFRILLLKVAGFNLLMTLRLWSSRAKRSGSGVKQTLNFDLLKLAGDVESNPGPSRGHMTEYKPTVRLATRDDVPRAVRTLAAAFADYPATRHTVDPDRHIERVTELQELFLTRVGLDIGKVWVADDGAAVAVWTTPESVEAGAVFAEIGPRMAELSGSRLAAQQQMEGLLAPHRPKEPAWFLATVGVSPDHQGKGLGSAVVLPGVEAAERAGVPAFLETSAPRNLPFYERLGFTVTADVEVPEGPRTWCMTRKPGA
modifications: Synthetic Immune Receptor (SIR)
NFAT-GFP ASSAY Positive Cell lines (coculture with NALM6 cells): (+)
